Literature values in article PMC3085179.

Molecular target: intermediate affinity IL-2 receptor (Homo sapiens) (UniProt P14784)
UniProt P14784, sequence (P14784 27-240, chain 1 of 2): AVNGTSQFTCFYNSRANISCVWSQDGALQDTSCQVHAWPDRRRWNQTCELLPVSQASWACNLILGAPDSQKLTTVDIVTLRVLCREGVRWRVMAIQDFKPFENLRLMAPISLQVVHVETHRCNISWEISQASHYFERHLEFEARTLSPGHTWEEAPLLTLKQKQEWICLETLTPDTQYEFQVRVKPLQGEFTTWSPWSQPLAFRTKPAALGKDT
UniProt P14784, sequence (P31785 23-262, chain 2 of 2, further chain): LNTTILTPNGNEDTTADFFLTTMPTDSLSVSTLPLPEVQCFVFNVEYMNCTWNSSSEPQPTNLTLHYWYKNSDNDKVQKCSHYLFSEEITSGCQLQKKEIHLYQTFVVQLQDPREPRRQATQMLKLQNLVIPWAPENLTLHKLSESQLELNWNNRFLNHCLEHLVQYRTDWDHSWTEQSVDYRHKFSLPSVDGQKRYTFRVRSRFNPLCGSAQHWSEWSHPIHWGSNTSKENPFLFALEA

IL-2, sequence (P60568 21-153): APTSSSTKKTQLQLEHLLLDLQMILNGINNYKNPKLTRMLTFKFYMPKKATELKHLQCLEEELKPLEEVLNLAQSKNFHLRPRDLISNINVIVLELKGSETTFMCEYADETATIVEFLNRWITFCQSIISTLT

IL-2 (from UniProt P60568)
Kd: 1 nM
